Reference: PMC9150345, “Trimeric complexes of Antp-TBP with TFIIEβ or Exd modulate transcriptional activity” (Hereditas, 2022)

Legend:
[1] = molecular target: T1, hTBPΔQ40, hTBP lacking the Poly-glutamine region (amino acids 50-102), fused to the N-terminal fragment of … (human, UniProt P20226 1-339, lacking the Poly-glutamine region (amino acids 50-102)); assay: split reporter (BiFC, NanoBiT); BiFC in HEK293 cells co-transfected with VC- and VN- constructs and pCAG-mCherry; read 48 h after transfection; interaction percent = green cells per 100 red cells; conditions: partners not purified
T1 construct: made by site-directed mutagenesis; source: HEK293, transfected, in living cells
T1 sequence (looked up): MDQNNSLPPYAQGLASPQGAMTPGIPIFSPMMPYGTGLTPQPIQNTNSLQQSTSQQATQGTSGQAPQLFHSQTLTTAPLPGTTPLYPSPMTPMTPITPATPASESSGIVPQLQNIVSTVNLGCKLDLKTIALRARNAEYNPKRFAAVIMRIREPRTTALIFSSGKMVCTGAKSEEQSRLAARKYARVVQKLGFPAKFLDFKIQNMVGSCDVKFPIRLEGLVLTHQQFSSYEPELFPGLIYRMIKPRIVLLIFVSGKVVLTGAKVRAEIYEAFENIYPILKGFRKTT

[2] = molecular target: T2, TATA-binding protein (hTBP), fused to the N-terminal fragment of Venus (human, UniProt P20226 1-339); assay: as above; conditions: partners not purified
T2 construct: also called VNTBP; source: HEK293, transfected, in living cells

B1: Antennapedia (Antp), fused to the C-terminal fragment of Venus (natural protein)
chain: not shown
notes: Antennapedia (Antp) Hox protein; also called VCAntp; Antp WT; source: HEK293, transfected, in living cells
[1]
  percent of transfected cells showing BiFC: 41%
[2]
  percent of transfected cells showing BiFC: 77%

B2: AntpQ5, Antp with the 5-polyQ stretch mutagenized to alanines (amino acids 123-127), fused to the C-terminal fragment of Venus (natural protein)
chain: not shown
notes: Antennapedia (Antp) in which the 5-polyQ stretch was mutagenized to alanines (amino acids 123-127); source: HEK293, transfected, in living cells
[2]
  percent of transfected cells showing BiFC: 74%

B3: AntpΔN, Antp lacking the N-terminal region (amino acids 1-269), fused to the C-terminal fragment of Venus (domain or fragment)
chain: not shown
notes: Antennapedia (Antp) lacking the N-terminal region (amino acids 1-269); source: HEK293, transfected, in living cells
[1]
  percent of transfected cells showing BiFC: 14%
[2]
  percent of transfected cells showing BiFC: 51%

B4: AntpΔHD, Antp without the YPWM motif and homeodomain (amino acids 245-363), fused to the C-terminal fragment of Venus (natural protein, Drosophila, UniProt P02833 1-378, looked up)
chain: MTMSTNNCESMTSYFTNSYMGADMHHGHYPGNGVTDLDAQQMHHYSQNANHQGNMPYPRFPPYDRMPYYNGQGMDQQQQHQVYSRPDSPSSQVGGVMPQAQTNGQLGVPQQQQQQQQQPSQNQQQQQAQQAPQQLQQQLPQVTQQVTHPQQQQQQPVVYASCKLQAAVGGLGMVPEGGSPPLVDQMSGHHMNAQMTLPHHMGHPQAQLGYTDVGVPDVTEVHQNHHNMGMYQQQSGVPPVGAPPSGGEGDEITPPNSPQ
notes: Antennapedia (Antp) without the HD (amino acids 245-363); the text calls it the YPWM-HD deletion; source: HEK293, transfected, in living cells
[2]
  percent of transfected cells showing BiFC: 74%

B5: AntpQ9, Antp with deletion of the 9-polyQ stretch (amino acids 110-118), fused to the C-terminal fragment of Venus (natural protein)
chain: not shown
notes: Antennapedia (Antp) with deletion of the 9-polyQ stretch (amino acids 110-118); source: HEK293, transfected, in living cells
[2]
  percent of transfected cells showing BiFC: 57%

B6: AntpΔPolyQ, Antp with deletion of PolyQ regions (amino acids 66-136), fused to the C-terminal fragment of Venus (natural protein)
chain: not shown
notes: Antennapedia (Antp) with deletion of PolyQ regions (amino acids 66-136); source: HEK293, transfected, in living cells
[2]
  percent of transfected cells showing BiFC: 51%

B7: AntpQ6, Antp with deletion of three glutamines (amino acids 150-152) and substitution of three glutamines to alanines (amino acids 153-155), fused to the … (natural protein)
chain: not shown
notes: Antennapedia (Antp) with deletion of three glutamines (150-152) and three glutamines changed to alanines (153-155); source: HEK293, transfected, in living cells
[2]
  percent of transfected cells showing BiFC: 63%
